According to publication PMC4742278 (2016):

How the values were obtained:
[1] = target: T1, EBNA2_(381–389) peptide with an additional Gly-Tyr dipeptide at the C-terminus (NH2-[…]-CONH2) (Epstein-Barr virus, strain B95-8, C-terminal amide (CONH2)); test: ITC
[2] = target: T1, EBNA2_(381–389) peptide with an …; test: ITC; N fixed to 1

Row | Binder | Kd [1] | Kd [2]
1 | QTKKKQWCYNCEEEAMAHCCWNTSYCSIKCQQEHWHAEHKRTCRRKR (domain or fragment) [BS69_(MYND) Y532A] | 64.5 µM | 
2 | QTKKKQWCYNCEEEAMYHCCWNTSYCSIKCQQEHWHAEHKRTCRAKR (domain or fragment) [BS69_(MYND) R560A] |  | ~279 µM
